Source: patent publication US7838495B2, “Compositions and methods of use of EPB1, and ErbB3 binding protein” (University of Maryland, Baltimore, priority 2007, dated 2010)
“Also recorded” adds a separate entry of the source.

How the values were obtained:
Type in all cases: cell-based, human
AU565 cells = assay: Western blot of ErbB2 in AU565 EBP1 transfectants
Method: (§1) FIG. 10A-C. Effect of ectopic expression of EBP1 on ErbB3 or ErbB2 protein levels. (A and B) Lysates of logarithmically growing MCF-7 vector control cells (CMV) or EBP1 transfected cells (Ebp1) or (C) AU565 cells were blotted with antibodies for ErbB3 or ErbB2 and actin as indicated. Data are representative of three experiments.
(§2) 2.5. Western blot analysis. Total cell extracts were prepared by direct lysis of cells with lysis buffer [50 mM Tris-HCl (pH 7.4), 1 mM EDTA, 250 mM NaCl, 1% Triton X-100, 0.5 mM DTT, and 1× Complete™ protease inhibitor]. Protein concentrations were measured using a detergent compatible kit (Bio-Rad). Proteins (30 lg per well) were resolved by SDS-PAGE, transferred to PVDF membranes, and immunoblotted as described. […] Images were quantified using IMAGE-J software (NIH). […] Relative cell numbers were determined 4 days later using a Promega Proliferation Reagent as per manufacturer's instructions with absorbance being read at 490 nm using a Dynex plate reader. […] Data were analyzed using a two-tailed Students t-test and a p <0.05 was deemed statistically significant. […]

MCF-7 cells = assay: Western blot of ErbB2 and ErbB3 in MCF-7 EBP1 transfectants; conditions: MCF-7-EBP1 transfectants vs vector controls
Method: as §1, §2

C81 cells = assay: Growth of C81 EBP1 transfectants (monolayer, soft agar, androgen-depleted media)
Method: FIG. 4A-C. EBP1 restoration ameliorates the hormone refractory phenotype A. (Left panel) Growth in monolayer culture. Equal numbers (5×10^4) of vector or EBP1 stably transfected cells were plated at Day 0 in complete media and viable cell numbers determined at the indicated times. Each point represents mean±S.E. of 3 wells. Representative of 3 experiments (Right panel). Colony growth in soft agar. C81 cells stably transfected with either pcDNA or EBP1 were plated in soft agar at the cell densities indicated and colony numbers assessed at Day 10. Each point represents mean±S.E. of 3 dishes. Data is representative of 3 experiments. B. (Left Panel) Response of EBP1 and vector transfected C81 cells to dihydrotestosterone (DHT). EBP1 and vector control C81 transfected cells and early passage LNCaP cells were plated in complete media at 5×10^3 cells/well in 96 well plates for one day. The next day, cells were switched to steroid reduced medium for two days as described in the Materials and Methods. DHT was then added at the indicated concentrations. Cells were refed media every 3 days. Total cell numbers were determined seven days later by MTT assays. Each point represents mean±S.E. of 6 wells. Data is representative of two experiments. (Right Panel) Effect of Bicalutamide on DHT stimulated growth. Cells were plated as described in the Materials and Methods. After 2 days in steroid reduced medium, cells were fed with fresh steroid reduced medium with or without 10 μM bicalutamide (Casodex) in the presence or absence of 10 nM DHT. Total cell numbers were assessed 7 days later by MTT assay. Cells were refed media every 3 days. The data shown are mean±S.E. of six wells. Similar results were found in 2 independent experiments. C. EBP1 expression sensitizes C81 cells to chemotherapeutic drugs. […] Total cell numbers were determined by MTT assays 5 days later. […]
Western Blot Analysis. […] For soft agar growth assays, increasing concentrations of cells (as indicated) were plated in 35 mm Petri dishes in 0.3% agar in complete media and colonies were counted after 10 days of incubation (21). […]

B1: EBP1: ErbB3 binding protein (SEQ ID NO: 2), AR corepressor, here ectopically expressed in cancer cells by stable transfection of an expression plasmid (protein, listed as Homo sapiens)
chain: MSGEDEQQEQTIAEDLVVTKYKMGGDIANRVLRSLVEASSSGVSVLSLCEKGDAMIMEETGKIFKKEKEMKKGIAFPTSISVNNCVCHFSPLKSDQDYILKEGDLVKIDLGVHVDGFIANVAHTFVVDVAQGTQVTGRKADVIKAAHLCAEAALRLVKPGNQNTQVTEAWNKVAHSFNCTPIEGMLSHQLKQHVIDGEKTIIQNPTDQQKKDHEKAEFEVHEVYAVDVLVSSGEGKAKDAGQRTTIYKRDPSKQYGLKMKTSRAFFSEVERRFDAMPFTLRAFEDEKKARMGVVECAKHELLQPFNVLYEKEGEFVAQFKFTVLLMPNGPMRITSGPFEPDLYKSEMEVQDAELKALLQSSASRKTQKKKKKKASKTAENATSGETLEENEAGD
modifications: FLAG tag
decrease of ErbB2 protein (AU565 cells): 57% | ErbB2 protein level (MCF-7 cells): significantly decreased | ErbB3 protein level (MCF-7 cells): no change | decrease of colony growth in soft agar (C81 cells; C81, highest cell concentration tested): approximately 50% | growth rate in complete media (C81 cells; C81 EBP1 transfectants vs vector control, p<0.05): significantly decreased | growth in the absence of androgens relative to vector controls (C81 cells; C81 EBP1 transfectants, androgen depleted media): reduced to one third; also recorded: reduced by ⅔
